Measured values taken from patent US12139542B2, “Inhibitors of aortic carboxypeptidase-like protein (ACLP)” (TRUSTEES OF BOSTON UNIVERSITY, priority 2014, dated 2024).

T1: TGFβ Receptor II (TβRII) (Mus musculus, UniProt Q62312)
T1 construct: contains the extracellular domain of mouse TβRII fused to the Fc domain of human IgG; purchased R&D
T1 sequence (Q62312 24-166 limits assumed): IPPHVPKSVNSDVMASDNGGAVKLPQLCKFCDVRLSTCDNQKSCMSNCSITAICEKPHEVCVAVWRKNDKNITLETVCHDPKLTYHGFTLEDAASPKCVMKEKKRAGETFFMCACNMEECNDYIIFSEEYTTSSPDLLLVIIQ

B1: TβRII Fc: extracellular domain of mouse TβRII fused to the Fc domain of human IgG (R&D); exemplary decoy ACLP inhibitor (protein)
chain: T1 sequence (Q62312 24-166 limits assumed)
modifications: left off: a dimerising Fc or GST
B2: Tsp repeat domain: recombinant N-terminal Tsp repeat domain of mouse ACLP, amino acids 26-373, myc-His tagged (protein)
chain: QTVLTDDEIEEFLEGFLSELETQSPPREDDVEVQPLPEPTQRPRKSKAGGKQRADVEVPPEKNKDKEKKGKKDKGPKATKPLEGSTRPTKKPKEKPPKATKKPKEKPPKATKKPKEKPPKATKKPKEKPPKATKRPSAGKKFSTVAPLETLDRLLPSPSNPSAQELPQKRDTPFPNAWQGQGEETQVEAKQPRPEPEEETEMPTLDYNDQIEKEDYEDFEYIRRQKQPRPTPSRRRLWPERPEEKTEEPEERKEVEPPLKPLLPPDYGDSYVIPNYDDLDYYFPHPPPQKPDVGQEVDEEKEEMKKPKKEGSSPKEDTEDKWTVEKNKDHKGPRKGEELEEEWAPVEK
modifications: left off: small tags and cut ends
notes: recombinant N-terminal Tsp repeat domain of mouse ACLP, amino acids 26-373, myc-His tagged

What was measured:
[1] = target: T1, TGFβ Receptor II (TβRII); test: ACLP binding assay: biotinylated rACLP on streptavidin plate incubated with TβRII Fc
Experimental: ACLP binding assays. To determine if ACLP binds to TGFβ Receptor II (TORII), ACLP was biotinylated using an EZ-Link Sulfo-NHS-LC-Biotin kit (Thermo Scientific 21327) according to manufacturer's instructions. Briefly, rACLP (0.267 nM) was incubated with 20 fold molar excess of biotin for 30 min at room temperature. The protein was then dialyzed back into DPBS overnight. Biotinylated ACLP (1 μg/well) was immobilized on a PIERCE™ Streptavidin coated High-Binding Capacity Plate (Thermo-Scientific PI-15500) overnight at 4° C. in binding buffer made up of PBS with Mg^2+, Ca^2+, 0.1% BSA, and 0.05% Tween 20). The next day, the plates were washed with binding buffer, blocked with the same buffer containing 1% BSA at room temperature for 1 h, followed by incubation with increasing amounts of TβRII Fc (0, 10, 100, 1000 ng). Binding was detected with Human-IgG-HRP (GE Healthcare Life Sciences) followed by incubation with 3,3′,5,5′-Tetramethylbenzidine (TMB, eBioscience). The reaction was quenched with 2 M H2SO4 and absorbance at 450 nm was measured on the BioTek Synergy HT system.
ACLP binds to the TGFβ-receptor II. […] The TβRII Fc chimera contains the extracellular domain of mouse TβRII fused to the Fc domain of human IgG and has been used as a global inhibitor of TGFβ (6).

[2] = tested on: ACLP-induced myofibroblast differentiation; test: TGFβ receptor-Fc decoy block of ACLP-induced SMA and SM-MHC expression in human lung fibroblasts; format: cell-based; conditions: human lung fibroblast cells with rACLP, 48 hours
[3] = tested on: ACLP signaling (pSmad3); test: TGFβ receptor-Fc decoy block of rACLP-induced pSmad3 in IMR90 fibroblasts; format: cell-based; conditions: IMR90 human lung fibroblast cells, 90 mins
[4] = tested on: TGFβ signaling activity (PAI-1 promoter luciferase); test: MLEC-TGFβ activity assay (PAI-1 promoter luciferase reporter); format: cell-based, mink; conditions: MLEC-TGFβ cells, treated overnight in low serum media
Experimental: Cell Treatments. IMR90 human lung fibroblasts (ATCC) and AD293 cells (Stratagene) were grown in DMEM supplemented with 10% FBS and 1% penicillin/streptomycin and incubated in a 5% CO2 atmosphere at 37° C. Mink lung epithelial cells stably transfected with the plasminogen activator inhibitor 1 (PAI-1) reporter construct driving luciferase expression (MLEC-TGFβ) (2) were grown in DMEM supplemented with 10% FBS and 1% penicillin/streptomycin, maintained in 250 μg/ml G418, and incubated in a 5% CO2 atmosphere at 37° C. IMR90 cells and MLEC-TGFβ cells were generally treated for 30 min, 24 h, or 48 h in low serum media containing 0.5% FBS and 1% penicillin/streptomycin and incubated in a 5% CO2 atmosphere at 37° C. Cells were treated with 3.75 μg/ml (approximately 30 nM) rACLP (full length, Tsp, or C-terminal) or 1 nM TGFβ (R&D) (as a positive control), except where indicated. Cells treated for 30 min were serum starved in low serum media overnight preceding treatment. MLEC-TGFβ activity assay. To measure TGFβ signaling activity, 1×10^4 MLEC-TGFβ cells/well were plated on white 96-well cell culture treated plates and allowed to adhere overnight. […] Luciferase activity was measured on an auto-injecting BioTek Synergy HT plate reader using 50 μl of luciferase assay substrate (Promega).

[5] = tested on: Smad3 phosphorylation (canonical TGFβ signaling); test: Smad3 phosphorylation in serum starved IMR90 fibroblasts (Western blot); format: cell-based, human; conditions: serum starved IMR90, ~30 nM protein, 30 min, low serum media
Experimental: (§1) IMR90 cells and MLEC-TGFβ cells were generally treated for 30 min, 24 h, or 48 h in low serum media containing 0.5% FBS and 1% penicillin/streptomycin and incubated in a 5% CO2 atmosphere at 37° C. Cells were treated with 3.75 μg/ml (approximately 30 nM) rACLP (full length, Tsp, or C-terminal) or 1 nM TGFβ (R&D) (as a positive control), except where indicated. Cells treated for 30 min were serum starved in low serum media overnight preceding treatment.
rACLP stimulates canonical TGFβ signaling (Published Tumelty et al JBC 2014). Because ACLP increases TGFβ signaling in a reporter assay, the role of ACLP in canonical TGFβ signaling was investigated in detail. In pulmonary fibroblasts, TGFβ promotes the phosphorylation of Smad3 which then binds to Smad4 and translocates into the nucleus to promote transcription of myofibroblast marker genes (4,5). Therefore, the effects of ACLP on Smad3 phosphorylation were measured. Serum starved IMR90 cells were treated with rACLP for 15, 30, 45, or 60 min, or 24 h (FIG. 3) (3).
Serum starved IMR90 human lung fibroblasts were treated with equivalent molar amounts (˜30 nM) of purified full-length, Tsp repeat domain, or C-terminal protein for 30 min in low serum media (FIG. 6).

[6] = tested on: IMR90 human lung fibroblast cells; test: SMA and collagen I protein expression in IMR90 fibroblasts treated with recombinant ACLP proteins (Western blot); format: cell-based; conditions: IMR90, low serum media, 3.75 μg/ml (~30 nM) protein, 48 h, vs control cells
Experimental: Cell Treatments. IMR90 human lung fibroblasts (ATCC) and AD293 cells (Stratagene) were grown in DMEM supplemented with 10% FBS and 1% penicillin/streptomycin and incubated in a 5% CO2 atmosphere at 37° C. Mink lung epithelial cells stably transfected with the plasminogen activator inhibitor 1 (PAI-1) reporter construct driving luciferase expression (MLEC-TGFβ) (2) were grown in DMEM supplemented with 10% FBS and 1% penicillin/streptomycin, maintained in 250 μg/ml G418, and incubated in a 5% CO2 atmosphere at 37° C.
as §1
Recombinant ACLP induces myofibroblast gene and protein expression. To further define the role of ACLP in the fibroblast to myofibroblast differentiation process, IMR90 human lung fibroblast cells were treated with rACLP. […] IMR90 cells were grown in media containing 3.75 μg/ml (30 nM) rACLP or 1 nM TGFβ as a positive control (FIG. 2A). […] These findings indicate that ACLP promotes the fibroblast to myofibroblast differentiation because it stimulates expression of SMA and collagen 1(3).
The N-terminal domain of ACLP promotes myofibroblast marker protein expression. Because the inventors discovered that the N-terminal Tsp motifs of ACLP (e.g. the PFD) is the domain responsible for promoting TGFβ signaling, the inventors next assessed which domain of ACLP is responsible for increased SMA and collagen I expression in lung myofibroblasts. IMR90 lung fibroblasts were treated in low serum media containing equal molar amounts of full-length protein, the pro-fibrotic domain (PFD) of ACLP, and C-terminal ACLP (˜30 nM) for 48 h (FIG. 7).

Molecule	binding to streptavidin wells without ACLP ([1]; control wells without ACLP)	amount that inhibited ACLP binding to TGFβ-RII in vitro ([1]; in vitro)	ACLP-induced SM-MHC expression [2]	ACLP-induced SMA expression [2]	pSmad3 expression in the presence of mouse rACLP [3]	amount that stimulated luciferase activity [4]	Smad3 phosphorylation [5]	SMA protein expression [6]	collagen protein expression [6]
B1	did not bind	at least 100 ng	decreases	decreases	decreases pSmad3 expression				
B2						≤ 5 µg/mL	stimulated Smad3 phosphorylation	promoted an increase	promoted an increase
